Data from patent US20230053131A1 (INTERVET, published 2023).

Biological target: T1, canine IL-4 receptor alpha on DH82 cells (canine)
T1 construct: Endogenous receptor of the canine DH82 cell line in the STAT-6 assay; also called canine IL-4Rα; IL-4R alpha
T1 chain: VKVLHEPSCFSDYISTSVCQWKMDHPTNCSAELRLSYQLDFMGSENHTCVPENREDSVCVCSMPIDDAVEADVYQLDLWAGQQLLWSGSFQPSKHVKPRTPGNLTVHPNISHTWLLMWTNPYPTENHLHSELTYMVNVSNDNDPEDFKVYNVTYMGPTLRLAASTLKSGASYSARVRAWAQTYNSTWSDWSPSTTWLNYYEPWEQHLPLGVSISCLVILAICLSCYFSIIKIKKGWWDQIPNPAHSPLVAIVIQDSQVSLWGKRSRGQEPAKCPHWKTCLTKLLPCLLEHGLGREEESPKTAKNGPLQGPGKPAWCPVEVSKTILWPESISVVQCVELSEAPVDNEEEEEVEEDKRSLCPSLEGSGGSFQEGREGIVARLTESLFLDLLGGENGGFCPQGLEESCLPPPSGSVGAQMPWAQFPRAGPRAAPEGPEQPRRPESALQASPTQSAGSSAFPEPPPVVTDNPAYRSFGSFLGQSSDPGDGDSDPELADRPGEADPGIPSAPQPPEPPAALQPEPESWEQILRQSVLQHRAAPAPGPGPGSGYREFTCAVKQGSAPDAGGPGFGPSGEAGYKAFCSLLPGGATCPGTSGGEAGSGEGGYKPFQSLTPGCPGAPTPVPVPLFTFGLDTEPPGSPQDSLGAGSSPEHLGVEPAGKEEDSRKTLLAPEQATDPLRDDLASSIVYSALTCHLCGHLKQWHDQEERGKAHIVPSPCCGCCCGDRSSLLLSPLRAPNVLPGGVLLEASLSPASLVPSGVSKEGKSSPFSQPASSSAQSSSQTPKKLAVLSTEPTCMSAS
Assay: inferred by the filing from inhibition of STAT-6 phosphorylation in DH82 cells
Description: Methods [0121] 1. Two tissue culture plates were seeded with 8×10⁴ DH82 cells per well (200 μL with the density of 4×10⁵ cells/mL) and incubated at 37° C. overnight. [0122] 2. The test antibodies were pre-diluted to 500 μg/mL and then 3-fold serially diluted in DH82 Cell Growth Media. The media was removed from the cell culture plates and 50 μL/well of the serially diluted test sample were transferred to each plate. [0123] 3. Canine IL-4 was diluted to 5 ng/mL in DH82 Cell Growth Media and 50 μL was added to each well of one plate. Canine IL-13 was diluted to 10 ng/mL in DH82 Cell Growth Media and 50 μL was added to each well of the second plate. The plates were incubated for 15 min at 37° C. [0124] 4. The media was removed from the plates and 100 μL per well of freshly prepared 1× lysis buffer from the AlphaLISA p-STAT-6 Assay Kit was added to the plate. The plate was agitated on a plate shaker with 350 rpm for 10 minutes at room temperature. [0125] 5. The Acceptor Mix was prepared from the AlphaLISA p-STAT6 Assay Kit and […] was added to 30 μL of the cell lysate in 96-well 1/2 Area Plates. The plates were sealed, agitated for 2 minutes at 350 rpm, and then incubated for 2 hours at room temperature. [0126] 6. […] The plates were read using the AlphaScreen settings on the Perkin Elmer EnVison.

B1: c146E2VL3-cCLk-s/c146E2VH3-cIgG-Bm (antibody, V domains shown)
VH: EVQLVQSGAEVKKPGASVKVSCKASGYTFARYWMHWMKQAPGAGLDWIGMIHPDSGNINYNERFKTKATLTVDKSTSTAYMELSSLRAGDIAVYYCARQLRNAMDYWGQGTLVTVSS
VL: DIVLTQTPLSLSVSPGETASIYCRASESVDSYGNSFLNWYQQKPGQPPKLLIYRASNLASEIPDRFSGSGSRTEFTLKISRVEADDAGVYYCQQNYENPRTFGQGTKLEIKR
notes: Caninized murine anti-canine IL-4R alpha antibody, canine IgG-Bm heavy chain and canine kappa light chain; also called c146E2-H3L3
binding result: binds
